test system: Escherichia coli TOP10; test: shrunken log2 fold change of peptide-encoding DNA abundance (4.5 h post-induction vs induction); higher = less antimicrobial activity (less host growth inhibition); conditions: time post-induction: 4.5 h; library: site-saturation at positions 5, 18, 19, 20
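Further: peptides expressed intracellularly from a pBAD plasmid library in pooled LB shake-flask culture, induced with 0.3% L-arabinose, DNA abundance read by NGS, three biological replicates, DESeq2 with apeglm shrinkage.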

Row | Sequence | shrunken log2 fold change
1 | RRIRTRPPRLPRPRPRPTFTPRP | 0.00867
2 | RRIRTRPPRLPRPRPRPTGAPRP | 0.323
3 | RRIRTRPPRLPRPRPRPTGQPRP | 0.031
4 | RRIRTRPPRLPRPRPRPTHFPRP | 0.301
5 | RRIRTRPPRLPRPRPRPTHPPRP | 0.312
6 | RRIRTRPPRLPRPRPRPTHRPRP | -0.185
7 | RRIRTRPPRLPRPRPRPTKHPRP | -0.258
8 | RRIRTRPPRLPRPRPRPTLWPRP | 0.475
9 | RRIRTRPPRLPRPRPRPTMGPRP | 0.0301
10 | RRIRTRPPRLPRPRPRPTMIPRP | -0.413
11 | RRIRTRPPRLPRPRPRPTMMPRP | -0.14
12 | RRIRTRPPRLPRPRPRPTMQPRP | 0.0459
13 | RRIRTRPPRLPRPRPRPTMTPRP | -0.0413
14 | RRIRTRPPRLPRPRPRPTNIPRP | -0.519
15 | RRIRTRPPRLPRPRPRPTPGPRP | 0.296
16 | RRIRTRPPRLPRPRPRPTPIPRP | 0.139
17 | RRIRTRPPRLPRPRPRPTPVPRP | 0.313
18 | RRIRTRPPRLPRPRPRPTQVPRP | 0.131
19 | RRIRTRPPRLPRPRPRPTSVPRP | 0.0486
20 | RRIRTRPPRLPRPRPRPTVHPRP | -0.199
21 | RRIRTRPPRLPRPRPRPTVKPRP | 3.07
22 | RRIRTRPPRLPRPRPRPTWAPRP | -0.117
23 | RRIRTRPPRLPRPRPRPTWSPRP | 0.256
24 | RRIRTRPPRLPRPRPRPVAEPRP | 0.191
25 | RRIRTRPPRLPRPRPRPVCRPRP | 0.0309

Row | Sequence | shrunken log2 fold change
26 | RRIRTRPPRLPRPRPRPVGKPRP | 0.0504
27 | RRIRTRPPRLPRPRPRPVHEPRP | 0.247
28 | RRIRTRPPRLPRPRPRPVHHPRP | -0.321
29 | RRIRTRPPRLPRPRPRPVKSPRP | -0.157
30 | RRIRTRPPRLPRPRPRPVLHPRP | -0.139
31 | RRIRTRPPRLPRPRPRPVLKPRP | 0.209
32 | RRIRTRPPRLPRPRPRPVLLPRP | -0.127
33 | RRIRTRPPRLPRPRPRPVMFPRP | 0.32
34 | RRIRTRPPRLPRPRPRPVNFPRP | -0.484
35 | RRIRTRPPRLPRPRPRPVNSPRP | -0.342
36 | RRIRTRPPRLPRPRPRPVPLPRP | -0.145
37 | RRIRTRPPRLPRPRPRPVQYPRP | -0.246
38 | RRIRTRPPRLPRPRPRPVRGPRP | 0.784
39 | RRIRTRPPRLPRPRPRPVRIPRP | -0.0431
40 | RRIRTRPPRLPRPRPRPVSGPRP | -0.0612
41 | RRIRTRPPRLPRPRPRPVSSPRP | 0.651
42 | RRIRTRPPRLPRPRPRPVSVPRP | -0.0287
43 | RRIRTRPPRLPRPRPRPVSWPRP | 0.522
44 | RRIRTRPPRLPRPRPRPVVQPRP | -0.062
45 | RRIRTRPPRLPRPRPRPVWEPRP | 0.264
46 | RRIRTRPPRLPRPRPRPVWQPRP | 0.256
47 | RRIRTRPPRLPRPRPRPVYMPRP | -0.382
48 | RRIRTRPPRLPRPRPRPWAPPRP | 0.154
49 | RRIRTRPPRLPRPRPRPWDYPRP | -0.139
50 | RRIRTRPPRLPRPRPRPWHIPRP | -0.115

Row | Sequence | shrunken log2 fold change
51 | RRIRTRPPRLPRPRPRPWIYPRP | -0.0134
52 | RRIRTRPPRLPRPRPRPWLEPRP | 0.218
53 | RRIRTRPPRLPRPRPRPWLSPRP | -0.272
54 | RRIRTRPPRLPRPRPRPWLTPRP | -0.0866
55 | RRIRTRPPRLPRPRPRPWLWPRP | 0.202
56 | RRIRTRPPRLPRPRPRPWMEPRP | -0.326
57 | RRIRTRPPRLPRPRPRPWPIPRP | 0.00716
58 | RRIRTRPPRLPRPRPRPWPLPRP | 0.0506
59 | RRIRTRPPRLPRPRPRPWPMPRP | 0.44
60 | RRIRTRPPRLPRPRPRPWRNPRP | -0.253
61 | RRIRTRPPRLPRPRPRPWSHPRP | -0.113
62 | RRIRTRPPRLPRPRPRPWSYPRP | -1.86
63 | RRIRTRPPRLPRPRPRPWTGPRP | -0.352
64 | RRIRTRPPRLPRPRPRPWTQPRP | 0.0256
65 | RRIRTRPPRLPRPRPRPWTWPRP | -0.0696
66 | RRIRTRPPRLPRPRPRPWVGPRP | -0.155
67 | RRIRTRPPRLPRPRPRPWYPPRP | -0.255
68 | RRIRTRPPRLPRPRPRPWYYPRP | -0.117
69 | RRIRTRPPRLPRPRPRPYAVPRP | -0.331
70 | RRIRTRPPRLPRPRPRPYCEPRP | -0.416
71 | RRIRTRPPRLPRPRPRPYDMPRP | 0.0197
72 | RRIRTRPPRLPRPRPRPYEMPRP | -0.482
73 | RRIRTRPPRLPRPRPRPYEWPRP | -0.139
74 | RRIRTRPPRLPRPRPRPYFIPRP | -0.872
75 | RRIRTRPPRLPRPRPRPYFWPRP | -0.299

Row | Sequence | shrunken log2 fold change
76 | RRIRTRPPRLPRPRPRPYHCPRP | 0.0119
77 | RRIRTRPPRLPRPRPRPYIHPRP | -0.779
78 | RRIRTRPPRLPRPRPRPYLKPRP | -0.27
79 | RRIRTRPPRLPRPRPRPYLQPRP | -0.525
80 | RRIRTRPPRLPRPRPRPYNCPRP | -0.168
81 | RRIRTRPPRLPRPRPRPYPAPRP | -0.277
82 | RRIRTRPPRLPRPRPRPYPPPRP | -0.203
83 | RRIRTRPPRLPRPRPRPYRHPRP | -0.0901
84 | RRIRTRPPRLPRPRPRPYRKPRP | -0.0329
85 | RRIRTRPPRLPRPRPRPYRMPRP | -0.128
86 | RRIRTRPPRLPRPRPRPYSIPRP | 0.015
87 | RRIRTRPPRLPRPRPRPYSVPRP | -0.027
88 | RRIRTRPPRLPRPRPRPYTVPRP | -0.0341
89 | RRIRTRPPRLPRPRPRPYYDPRP | -0.24
90 | RRIRTRPPRLPRPRPRPYYWPRP | -0.0825
91 | RRIRVRPPRLPRPRPRPAAAPRP | 0.69
92 | RRIRVRPPRLPRPRPRPAAGPRP | 0.154
93 | RRIRVRPPRLPRPRPRPACAPRP | 0.322
94 | RRIRVRPPRLPRPRPRPAECPRP | -0.0646
95 | RRIRVRPPRLPRPRPRPAENPRP | 0.15
96 | RRIRVRPPRLPRPRPRPAGKPRP | -0.308
97 | RRIRVRPPRLPRPRPRPAGLPRP | 0.192
98 | RRIRVRPPRLPRPRPRPAIGPRP | 0.045
99 | RRIRVRPPRLPRPRPRPAIPPRP | -0.356
100 | RRIRVRPPRLPRPRPRPALAPRP | 0.484

Row | Sequence | shrunken log2 fold change
101 | RRIRVRPPRLPRPRPRPANWPRP | 0.224
102 | RRIRVRPPRLPRPRPRPAPGPRP | 0.472
103 | RRIRVRPPRLPRPRPRPAQEPRP | 0.0593
104 | RRIRVRPPRLPRPRPRPAREPRP | 0.254
105 | RRIRVRPPRLPRPRPRPARYPRP | 0.0291
106 | RRIRVRPPRLPRPRPRPATGPRP | 0.119
107 | RRIRVRPPRLPRPRPRPATHPRP | -0.0884
108 | RRIRVRPPRLPRPRPRPATIPRP | -0.101
109 | RRIRVRPPRLPRPRPRPATKPRP | 0.153
110 | RRIRVRPPRLPRPRPRPAVFPRP | 0.265
111 | RRIRVRPPRLPRPRPRPAVMPRP | -0.0705
112 | RRIRVRPPRLPRPRPRPAWVPRP | 0.459
113 | RRIRVRPPRLPRPRPRPAYNPRP | -0.394
114 | RRIRVRPPRLPRPRPRPAYPPRP | -0.179
115 | RRIRVRPPRLPRPRPRPAYYPRP | -0.616
116 | RRIRVRPPRLPRPRPRPCEFPRP | -0.242
117 | RRIRVRPPRLPRPRPRPCFDPRP | -0.121
118 | RRIRVRPPRLPRPRPRPCGDPRP | -0.18
119 | RRIRVRPPRLPRPRPRPCHEPRP | -0.378
120 | RRIRVRPPRLPRPRPRPCHQPRP | -0.483
121 | RRIRVRPPRLPRPRPRPCIYPRP | -0.533
122 | RRIRVRPPRLPRPRPRPCKFPRP | 0.01
123 | RRIRVRPPRLPRPRPRPCKRPRP | -0.196
124 | RRIRVRPPRLPRPRPRPCPSPRP | -0.0233
125 | RRIRVRPPRLPRPRPRPCQEPRP | -0.68

Row | Sequence | shrunken log2 fold change
126 | RRIRVRPPRLPRPRPRPCRAPRP | 0.0373
127 | RRIRVRPPRLPRPRPRPCRTPRP | -1.03
128 | RRIRVRPPRLPRPRPRPCSPPRP | -0.137
129 | RRIRVRPPRLPRPRPRPCYDPRP | 0.0557
130 | RRIRVRPPRLPRPRPRPCYVPRP | -0.0957
131 | RRIRVRPPRLPRPRPRPDADPRP | 0.793
132 | RRIRVRPPRLPRPRPRPDCCPRP | -0.0439
133 | RRIRVRPPRLPRPRPRPDCNPRP | -0.497
134 | RRIRVRPPRLPRPRPRPDCPPRP | -0.104
135 | RRIRVRPPRLPRPRPRPDCQPRP | 0.00516
136 | RRIRVRPPRLPRPRPRPDDLPRP | -0.0407
137 | RRIRVRPPRLPRPRPRPDEDPRP | 0.185
138 | RRIRVRPPRLPRPRPRPDEGPRP | 0.0672
139 | RRIRVRPPRLPRPRPRPDFAPRP | 0.147
140 | RRIRVRPPRLPRPRPRPDFKPRP | 0.0385
141 | RRIRVRPPRLPRPRPRPDGCPRP | 0.101
142 | RRIRVRPPRLPRPRPRPDHTPRP | -0.428
143 | RRIRVRPPRLPRPRPRPDKQPRP | -0.284
144 | RRIRVRPPRLPRPRPRPDKWPRP | -0.151
145 | RRIRVRPPRLPRPRPRPDLQPRP | 0.00798
146 | RRIRVRPPRLPRPRPRPDNEPRP | -0.185
147 | RRIRVRPPRLPRPRPRPDPEPRP | -0.0984
148 | RRIRVRPPRLPRPRPRPDRDPRP | 0.0414
149 | RRIRVRPPRLPRPRPRPDRGPRP | -0.0555
150 | RRIRVRPPRLPRPRPRPDRNPRP | -0.162

From the supplement of paper PMC9112550, “Optimization of the antimicrobial peptide Bac7 by deep mutational scanning” (BMC Biology, 2022)
